Experimental data: patent US9988424 (DUKE UNIVERSITY, dated 2018)
Like-named read-outs stand apart in the source and are kept apart here.

How the values were obtained:
[1] = target: AE.A244 V1V2 Tags (HIV-1); assay: SPR, mAb captured on anti-Fc, V1/V2 tags injected
[2] = target: C.CAP206 gp140CF.12 (HIV-1); assay: ELISA, OD405 at 10 ug/ml
[3] = target: Con 6 gp120; assay: ELISA, OD405 at 10 ug/ml
[4] = target: C.1086 gp120 (HIV-1); assay: ELISA, OD405 at 10 ug/ml
[5] = target: B.9021 gp140C (HIV-1); assay: ELISA, OD405 at 10 ug/ml
[6] = target: T1, SIV CPZ US-1 gp140CF (SIVcpz); assay: ELISA, OD405 at 10 ug/ml
T1 construct: also called US-1 SIVCPZ gp140CF
T1 chain: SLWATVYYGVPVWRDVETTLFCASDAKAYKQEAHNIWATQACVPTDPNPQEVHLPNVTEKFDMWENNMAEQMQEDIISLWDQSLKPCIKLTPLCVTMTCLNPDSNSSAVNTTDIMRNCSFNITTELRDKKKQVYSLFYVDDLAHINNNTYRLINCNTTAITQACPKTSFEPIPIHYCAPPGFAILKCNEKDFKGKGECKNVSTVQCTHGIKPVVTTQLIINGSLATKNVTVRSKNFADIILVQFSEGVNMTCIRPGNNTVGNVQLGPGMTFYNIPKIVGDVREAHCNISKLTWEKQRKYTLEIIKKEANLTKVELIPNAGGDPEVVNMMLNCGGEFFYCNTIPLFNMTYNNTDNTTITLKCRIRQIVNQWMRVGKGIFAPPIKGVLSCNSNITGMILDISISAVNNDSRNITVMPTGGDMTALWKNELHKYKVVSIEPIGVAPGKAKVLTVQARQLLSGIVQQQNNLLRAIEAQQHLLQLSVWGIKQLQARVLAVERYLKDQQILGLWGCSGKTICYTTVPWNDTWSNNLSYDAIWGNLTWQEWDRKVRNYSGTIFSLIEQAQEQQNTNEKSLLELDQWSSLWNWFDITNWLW

[7] = target: B.63521_V1/V2 tags; assay: ELISA, OD405 at 10 ug/ml
[8] = target: T2, B.62357 gp140C; assay: ELISA, OD405 at 10 ug/ml
T2 construct: also called B.62357 140C

[9] = target: T3, gp70 C.1086 V1/V2 (HIV-1 V1V2 on murine leukemia virus gp70); assay: ELISA, OD405 at 10 ug/ml
T3 construct: also called C.gp70 1086C V1V2; C.1086gp70V1V2
T3 chain: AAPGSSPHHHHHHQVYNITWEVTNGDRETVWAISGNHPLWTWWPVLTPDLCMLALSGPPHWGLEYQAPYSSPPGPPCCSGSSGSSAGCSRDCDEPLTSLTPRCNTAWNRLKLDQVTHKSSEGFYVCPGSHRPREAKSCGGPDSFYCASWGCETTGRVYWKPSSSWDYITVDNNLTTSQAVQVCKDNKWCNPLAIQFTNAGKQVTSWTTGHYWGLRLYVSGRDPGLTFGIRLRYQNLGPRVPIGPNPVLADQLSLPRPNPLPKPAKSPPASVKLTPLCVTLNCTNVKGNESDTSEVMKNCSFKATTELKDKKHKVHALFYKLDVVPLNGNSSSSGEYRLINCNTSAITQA

[10] = target: T4, A.9004SS V1/V2 tags; assay: ELISA, OD405 at 10 ug/ml
T4 V1V2 tags construct: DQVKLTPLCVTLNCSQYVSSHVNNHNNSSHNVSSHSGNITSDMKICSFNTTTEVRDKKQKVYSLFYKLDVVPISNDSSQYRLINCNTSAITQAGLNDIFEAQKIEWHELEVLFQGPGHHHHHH

[11] = target: T5, gp70 B.HXB2/BALV1V2/N156QN160Q (murine leukemia virus; HIV-1); assay: ELISA, mAb 0.001-100 ug/ml on coated V1V2 scaffold, OD450
T5 chain: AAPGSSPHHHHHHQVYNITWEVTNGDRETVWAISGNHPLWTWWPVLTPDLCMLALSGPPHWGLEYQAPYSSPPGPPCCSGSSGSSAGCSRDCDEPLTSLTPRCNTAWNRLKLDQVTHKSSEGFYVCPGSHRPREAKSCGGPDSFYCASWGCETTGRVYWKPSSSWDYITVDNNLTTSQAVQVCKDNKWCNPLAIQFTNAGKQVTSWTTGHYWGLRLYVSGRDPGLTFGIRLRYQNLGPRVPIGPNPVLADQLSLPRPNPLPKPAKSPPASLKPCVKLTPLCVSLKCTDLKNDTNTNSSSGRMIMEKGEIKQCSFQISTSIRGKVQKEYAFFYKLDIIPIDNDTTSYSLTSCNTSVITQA

[12] = target: T6, J08 A.92RW020V1V2/N156QN160Q (HIV-1); assay: as above
T6 construct: also called J08 A.92RW020VV1V2/N156QN160Q

[13] = target: Con 6 gp120; assay: ELISA, OD405 at 10 ug/ml; remark: listed apart in the source
[14] = target: B.con gp140CF; assay: ELISA, OD405 at 10 ug/ml
[15] = target: B.040 gp140C; assay: ELISA, OD405 at 10 ug/ml
[16] = target: T7, C.1086 gp140; assay: ELISA, OD405 at 10 ug/ml
T7 construct: also called C.1086gp140C

[17] = target: G.con gp140CF; assay: ELISA, OD405 at 10 ug/ml
[18] = target: T2, B.62357 gp140C; assay: ELISA, OD405 at 10 ug/ml; remark: listed apart in the source
[19] = target: AE.con gp140CF; assay: ELISA, OD405 at 10 ug/ml

B1: CH59 (antibody, V domains shown)
VH: EVQLVESGGGLVQPGRSLRLSCAASGFTFDDGAMHWVRQAPGKGLEWVSGISWNSNIIAYADSVKGRFTISRDNAKNSLYLEMNSLRVEDTALYYCAKDSPRGELPLNYWGQGTLVTVSS
VL: SYELTQPPSVSVSPGQTARITCSGDALPKNYAYWYQQKSGQAPVLVIYEDSKRPSGIPERFSGSSSGTMATLTISGAQVEDEADYYCYSTDSSGNHRVFGGGTKLTVL
notes: also called mAb CH59
[1]
  Kd: 1 nM

B2: 697D reverted unmutated ancestor antibody (antibody, V domains shown)
VH: QVQLVQSGAEVKKPGSSVKVSCKASGGTFSSYTISWVRQAPGQGLEWMGRIIPILGIANYAQKFQGRVTITADKSTSTAYMELSSLRSEDTAVYYCATSGVGLHFGYFDYWGQGTLVTVSS
VL: QSVLTQPPSVSGAPGQRVTISCTGSSSNIGAGYDVHWYQQLPGTAPKLLIYGNSNRPSGVPDRFSGSKSGTSASLAITGLQAEDEADYYCQSYDSSLSGYVFGTGTKVTVL
notes: also called 697D RUA
[2]
  binding result: no binding (tested: 10 ug/ml)
[3]
  binding result: no binding (tested: 10 ug/ml)
[4]
  binding result: no binding (tested: 10 ug/ml)
[5]
  binding result: no binding (tested: 10 ug/ml)
[6]
  binding result: no binding (tested: 10 ug/ml)
[7]
  binding result: no binding (tested: 10 ug/ml)
[8]
  binding result: no binding (tested: 10 ug/ml)
[9]
  binding result: no binding (tested: 10 ug/ml)
[10]
  binding result: no binding (tested: 10 ug/ml)

B3: PG16 (antibody, V domains shown)
VH: QEQLVESGGGVVQPGGSLRLSCLASGFTFHKYGMHWVRQAPGKGLEWVALISDDGMRKYHSDSMWGRVTISRDNSKNTLYLQFSSLKVEDTAMFFCAREAGGPIWHDDVKYYDFNDGYYNYHYMDVWGKGTTVTVSS
VL: QSALTQPASVSGSPGQTITISCNGTSSDVGGFDSVSWYQQSPGKAPKVMVFDVSHRPSGISNRFSGSKSGNTASLTISGLHIEDEGDYFCSSLTDRSHRIFGGGTKVTVL
notes: also called mAb PG16; bnAb PG16
[11]
  binding result: no binding (tested: 100 ug/ml)
[12]
  binding result: no binding (tested: 100 ug/ml)

B4: CH58 reverted unmutated ancestor antibody (antibody, V domains shown)
VH: EVQLVQSGAEVKKPGESLKISCKGSGYSFTSYWIGWVRQMPGKGLEWMGIIYPGDSDTRYSPSFQGQVTISADKSISTAYLQWSSLKASDTAMYYCARLGGRYYYDSSGYYYFDYWGQGTLVTVSS
VL: NFMLTQPHSVSESPGKTVTISCTRSSGSIASNYVQWYQQRPGSSPTTVIYEDNQRPSGVPDRFSGSIDSSSNSASLTISGLKTEDEADYYCQSYDSSSWVFGGGTKLTVL
notes: also called CH58 RUA; CH58_RUA
[13]
  binding result: no binding (tested: 10 ug/ml)
[14]
  binding result: no binding (tested: 10 ug/ml)
[15]
  binding result: no binding (tested: 10 ug/ml)
[16]
  binding result: no binding (tested: 10 ug/ml)
[17]
  binding result: no binding (tested: 10 ug/ml)
[18]
  binding result: no binding (tested: 10 ug/ml)
[19]
  binding result: no binding (tested: 10 ug/ml)
